In EP0946727B1:

How the values were obtained:
[1] = target: human CD11a (human) (UniProt P20701); experiment: blocking of Jurkat cell adhesion to human keratinocytes (ICAM-1)
[2] = target: human CD11a (human) (UniProt P20701); experiment: FACScan on Jurkat cells
[3] = target: rhesus CD18 (rhesus) (UniProt H9Z8N5); experiment: blocking of rhesus lymphocyte adhesion to recombinant human ICAM-1 on plates
[4] = target: rhesus CD18 (rhesus) (UniProt H9Z8N5); experiment: blocking of rhesus lymphocyte adhesion to human keratinocytes
[5] = target: human CD11a (human) (UniProt P20701); experiment: cell-based or functional assay
[6] = target: human CD11a (human) (UniProt P20701); experiment: cell binding, human CD11a
[7] = target: human CD11a (human) (UniProt P20701); experiment: saturation binding, human lymphocytes, donor 2, Kd(app)
[8] = target: human CD11a (human) (UniProt P20701); experiment: binding to Jurkat cells (FACScan)
[9] = target: human CD11a (human) (UniProt P20701); experiment: saturation binding of 125I-antibody to human peripheral blood mononuclear cells, Kd(app)
[10] = target: human CD11a (human) (UniProt P20701); experiment: saturation binding, human lymphocytes, donor 1, Kd(app)

human CD11a (human), sequence (P20701 26-1170): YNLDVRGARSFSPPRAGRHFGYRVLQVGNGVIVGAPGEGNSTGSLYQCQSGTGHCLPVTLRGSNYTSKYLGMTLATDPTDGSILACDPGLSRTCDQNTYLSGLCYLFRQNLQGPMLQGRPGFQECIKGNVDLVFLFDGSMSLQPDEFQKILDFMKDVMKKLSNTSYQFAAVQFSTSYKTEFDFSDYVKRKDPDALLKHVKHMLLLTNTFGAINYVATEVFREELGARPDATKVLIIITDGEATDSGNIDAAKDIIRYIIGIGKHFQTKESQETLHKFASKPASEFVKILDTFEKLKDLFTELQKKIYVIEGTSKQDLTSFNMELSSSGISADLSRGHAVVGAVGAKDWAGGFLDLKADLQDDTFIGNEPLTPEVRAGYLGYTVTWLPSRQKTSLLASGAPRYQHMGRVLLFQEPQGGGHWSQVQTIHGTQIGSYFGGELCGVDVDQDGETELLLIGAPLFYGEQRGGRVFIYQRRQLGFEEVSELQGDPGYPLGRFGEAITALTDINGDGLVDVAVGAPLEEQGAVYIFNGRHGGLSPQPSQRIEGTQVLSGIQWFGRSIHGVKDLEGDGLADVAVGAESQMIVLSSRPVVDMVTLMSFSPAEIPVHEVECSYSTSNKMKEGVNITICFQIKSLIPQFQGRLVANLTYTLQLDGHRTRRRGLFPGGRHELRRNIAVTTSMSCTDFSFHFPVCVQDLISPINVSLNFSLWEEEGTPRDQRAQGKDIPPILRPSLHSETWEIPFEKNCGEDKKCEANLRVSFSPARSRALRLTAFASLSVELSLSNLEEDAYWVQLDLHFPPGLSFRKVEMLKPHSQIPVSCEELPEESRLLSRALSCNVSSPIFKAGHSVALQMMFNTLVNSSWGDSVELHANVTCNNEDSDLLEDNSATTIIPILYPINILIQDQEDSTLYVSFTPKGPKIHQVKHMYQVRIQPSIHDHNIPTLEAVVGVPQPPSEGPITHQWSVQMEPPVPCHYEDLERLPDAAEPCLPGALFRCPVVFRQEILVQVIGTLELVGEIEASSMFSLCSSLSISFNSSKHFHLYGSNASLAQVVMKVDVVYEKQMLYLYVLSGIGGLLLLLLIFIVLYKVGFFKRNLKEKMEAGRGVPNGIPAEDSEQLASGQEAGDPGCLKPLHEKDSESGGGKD
murine MHM24 (antibody), sequence (main, form in doubt): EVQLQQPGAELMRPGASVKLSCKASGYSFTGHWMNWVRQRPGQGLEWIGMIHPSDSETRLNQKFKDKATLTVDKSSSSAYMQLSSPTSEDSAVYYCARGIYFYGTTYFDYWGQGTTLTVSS
murine MHM24 (antibody), sequence (main, form in doubt): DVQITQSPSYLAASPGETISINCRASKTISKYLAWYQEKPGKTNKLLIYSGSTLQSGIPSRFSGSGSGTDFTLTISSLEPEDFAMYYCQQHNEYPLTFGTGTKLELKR
humanized MHM24 IgG1 (antibody), sequence (main, form in doubt): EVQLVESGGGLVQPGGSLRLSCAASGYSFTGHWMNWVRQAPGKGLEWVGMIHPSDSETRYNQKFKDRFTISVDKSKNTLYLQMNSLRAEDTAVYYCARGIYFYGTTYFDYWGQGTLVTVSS
humanized MHM24 IgG1 (antibody), sequence (main, form in doubt): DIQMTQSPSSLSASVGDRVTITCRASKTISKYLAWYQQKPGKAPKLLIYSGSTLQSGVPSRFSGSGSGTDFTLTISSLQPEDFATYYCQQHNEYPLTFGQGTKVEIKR

IC50 [1] [nM] | EC50 [2] [ng/mL] | EC50 F(ab)/EC50 F(ab)-2 [2] | IC50 [3] [nM] | IC50 [4] [nM] | IC50, human mixed lymphocyte response (MLR) [5] [nM] | Var.EC50/HuIgG1 EC50 [6] | Kd [7] [nM] | EC50 [8] [nM] | Kd [9] [nM] | Kd [10] [nM] | Substance
0.1 | 5.2 | 0.006 | – | – | – | – | – | – | – | – | chimeric MHM24 IgG1 (antibody)
– | – | – | 1.2 | 1.6 | – | – | – | – | – | – | murine anti-human CD18 antibody MHM23
0.13 | – | 0.004 | – | – | 0.38 | 1 | 0.18 | 0.042 | 0.15 | 0.11 | humanized MHM24 IgG1 (antibody)
0.09 | – | – | – | – | 0.19 | – | 0.13 | – | 0.15 | 0.16 | murine MHM24 (antibody)
